Measurements from PMC5678579, “Clusterin protects neurons against intracellular proteotoxicity” (Acta Neuropathologica Communications, 2017).

Target: full length human TDP-43-turboGFP, in vitro translated (human, UniProt Q13148 1-414)
Assay: cell-based or functional assay

Sequence of full length human TDP-43-turboGFP, in vitro translated (Q13148 whole entry): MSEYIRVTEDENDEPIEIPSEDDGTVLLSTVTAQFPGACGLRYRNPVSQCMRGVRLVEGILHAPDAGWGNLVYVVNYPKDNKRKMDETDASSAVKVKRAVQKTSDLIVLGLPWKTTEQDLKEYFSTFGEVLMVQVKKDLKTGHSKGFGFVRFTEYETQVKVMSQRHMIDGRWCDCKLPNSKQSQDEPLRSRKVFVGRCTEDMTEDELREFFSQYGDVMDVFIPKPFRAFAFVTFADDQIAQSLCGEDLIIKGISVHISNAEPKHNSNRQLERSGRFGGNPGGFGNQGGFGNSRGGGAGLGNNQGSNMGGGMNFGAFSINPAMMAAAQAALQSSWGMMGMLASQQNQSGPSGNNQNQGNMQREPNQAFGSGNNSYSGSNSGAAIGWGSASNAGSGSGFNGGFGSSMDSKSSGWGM

- soluble TDP-43-tGFP left after 4 h at 37 °C with 43 nM CLU, against 43 nM BSA (Western blot of the supernatant, densitometry): 8 fold
B1: clusterin (CLU) purified from human plasma (natural protein)
chain 1: DQTVSDNELQEMSNQGSKYVNKEIQNAVNGVKQIKTLIEKTNEERKTLLSNLEEAKKKKEDALNETRESETKLKELPGVCNETMMALWEECKPCLKQTCMKFYARVCRSGSGLVGRQLEEFLNQSSPFYFWMNGDRIDSLLENDRQQTHMLDVMQDHFSRASSIIDELFQDRFFTREPQDTYHYLPFSLPHRRPHFFFPKSRIVR
chain 2: SLMPFSPYEPLNFHAMFQPFLEMIHEAQQAMDIHFHSPAFQHPPTEFIREGDDDRTVCREIRHNSTGCLRMKDQCDKCREILSVDCSTNNPSQAKLRRELDESLQVAERLTRKYNELLKSYQWKMLNTSSLLEQLNEQFNWVSRLANLTQGEDQYYLRVTTVASHTSDSDVPSGVTEVVVKLFDSDPITVTVPVEVSRKNPKFMETVAEKALQEYRKKHREE
